{
  "source": "paper PMC7668044",
  "about": "“Insights into bacterial cell division from a structure of EnvC bound to the FtsX periplasmic domain” (Proceedings of the National Academy of Sciences of the …, 2020)",
  "target": "T1, mature EnvC (murein hydrolase activator), non-tagged, co-expressed for crystallisation (E. coli, UniProt P37690 35-419)",
  "T1 construct": "EnvC, E. coli, mature protein",
  "T1 sequence (looked up)": "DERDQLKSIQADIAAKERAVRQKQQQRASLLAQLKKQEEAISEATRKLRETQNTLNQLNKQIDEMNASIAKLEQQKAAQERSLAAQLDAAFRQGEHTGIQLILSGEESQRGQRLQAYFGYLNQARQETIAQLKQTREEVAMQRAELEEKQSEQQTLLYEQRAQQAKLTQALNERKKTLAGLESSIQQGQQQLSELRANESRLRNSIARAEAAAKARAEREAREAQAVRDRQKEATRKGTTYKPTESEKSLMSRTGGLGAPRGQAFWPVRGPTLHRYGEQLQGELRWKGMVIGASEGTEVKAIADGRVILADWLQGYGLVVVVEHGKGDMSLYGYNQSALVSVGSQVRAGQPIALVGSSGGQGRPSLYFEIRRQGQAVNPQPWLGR",
  "experiment": "crystal structure; X-ray, 2.1 Å, space group P2(1)2(1)2(1); His-tagged FtsX periplasmic domain and non-tagged EnvC coexpressed and copurified by Ni-IMAC; molecular replacement",
  "conditions": "both partners purified",
  "data": [
    {"binder": "FtsX periplasmic domain, histidine-tagged, co-expressed for crystallisation (domain or fragment, E. coli, FtsX periplasmic domain (between the first and second transmembrane helix), E. coli; The two-hybrid construct of the same domain is residues 110 to 209; also called FtsX I; FtsX II; source: E. coli C43(DE3), coexpressed with non-tagged EnvC from a pETDuet1-based vector, copurified by Ni-IMAC) QITVYLQKTLDDDAAAGVVAQLQAEQGVEKVNYLSREDALGEFRNWSGFGGALDMLEENPLPAVAVVIPKLDFQGTESLNTLRDRITQINGIDEVRMDDS", "values": [
      {"measurement": "stoichiometry N", "value": "2 FtsX periplasmic domains per EnvC"}
    ]}
  ]
}
